# Laboratory results: the supplement of paper PMC9732359
# ± gives the uncertainty stated by the source.
# Assay: protein stability index of a GFP-peptide fusion (yeast GPS) (PSI 1-4); higher = more stable; sorted into four equal gates, so the index is relative within each strain
# Settings: doa10∆
# Procedure, shortened: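 Sequencing reads from sorted gates were used to score each peptide. The library consisted of tiled 17-residue yeast protein peptides fused downstream of GFP on a Cherry-expressing plasmid, pooled and carried in yeast. Mid-log cultures in leucine-free medium were split into four equal gates by GFP/Cherry ratio, and each gate's plasmids were PCR-amplified and Illumina-sequenced. The protein stability index adds up, over all gates, the read frequency multiplied by the gate number.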
row,Sequence,protein stability index
1,GNGELYMDCLLYDLRAS [SNU114],2.03 ± 0.058

# Same assay, conditions: pdr5∆
row,Sequence,protein stability index
1,FPTRLGQGYRKVGIWPY [YJL039C/NUP192],3.25 ± 0.14
2,FPWLNAIKYRPTSVKLL [POP3],2.19 ± 0.046
3,FQAHEITSFLLSKMENV [NAS6],1.53 ± 0.045
4,FQFKLLQSNSKLASTLE [SMC4],2.37 ± 0.042
5,FQHADNSSMRYGYWFDC [AAR2],2.77 ± 0.12
6,FQIPTNLDAAAAGTSQA [RPC10],2.83 ± 0.09
7,FRFQGGIIVAVDSRATA [PRE2],1.54 ± 0.072
8,FRRDFLLREYDILSQIL [YJL039C/NUP192],2.32 ± 0.1
9,FRTVKEMVKDRGYFITQ [RPB5],2.08 ± 0.071
10,FSDKVNALWILVDLVSH [ITC1],1.23 ± 0.051
11,FSFTEPAQKDSSVVSEP [YOR098C/NUP1],3.11 ± 0.1
12,FSIFNYFKMFPASKHDK [RPC34],1.34 ± 0.12
13,FSKAIEWDMLNVEEEQI [BRR2],3.03 ± 0.11
14,FSKQCLISNAIYGKKTM [ECM29],1.95 ± 0.077
15,FSRFVDQFIRHVLRGVE [YCG1],1.5 ± 0.1
16,FSTNVKDEIVLSGNSVE [RPL9A],2.18 ± 0.13
17,FTDENTIVLSLNVKCTR [RPC40],3.61 ± 0.091
18,FTFGLTVVQVYDNGQVF [RPP0],1.3 ± 0.1
19,FTIQSFVSSLSNTSTLK [BRR2],1.97 ± 0.041
20,FTIVSLVQLKKFSDLKF [YML103C/NUP188],2.5 ± 0.097
21,FTKPPANETDKRPTPPS [YOR098C/NUP1],3.05 ± 0.048
22,FTRPLFVLLEIEPVTKV [YCS4],2.05 ± 0.07
23,FTTLLESKQDGLSILFL [YML103C/NUP188],2.68 ± 0.12
24,FVAKLAAQIFGSYNAFE [COR1],1.74 ± 0.048
25,FVDDTNVYRVTVHKTFE [PRP8],2.74 ± 0.11

row,Sequence,protein stability index
1,FVIPALPAAVSKSLQES [RPC82],1.69 ± 0.14
2,FVVPTFGQDVSPMINST [SNM1],2.89 ± 0.085
3,FVWLSSEENIGSGLLKL [SWI1],3.19 ± 0.09
4,FYDIRSLLERHIPRLIP [YJL039C/NUP192],2.46 ± 0.046
5,FYVPQARNVTFDSLRNF [GRR1],2.27 ± 0.075
6,GAASNRTKFVRSLVREI [RPL36A],2.59 ± 0.25
7,GAGIQIIMQADLALKMG [FAS2],2.09 ± 0.065
8,GAGSAFGFSSSGTAATG [YOR098C/NUP1],3.41 ± 0.15
9,GAHGYSGFYTFSLLDHH [PRE1],2.44 ± 0.16
10,GAHLGRFVIWTEAAFTK [RPL4A],3.04 ± 0.2
11,GAIDEALEEAKLSDNIS [YDL116W/NUP84],3.25 ± 0.091
12,GAKPEEKKDDNSSKPAF [YJL041W/NSP1],3.38 ± 0.14
13,GAKQTQGGAMNKKSEQA [SRP72],3.07 ± 0.07
14,GALKGASDGGLYVPHSE [RPL5],1.88 ± 0.073
15,GCKNGSFTLLNQLSQTN [NUT1],3.05 ± 0.079
16,GDAAPAEEAAAEEEEES [RPP0],3.67 ± 0.16
17,GDFLDFQVHERLAPLIK [ARP7],3.29 ± 0.13
18,GDVGKNHITEFPSIPLP [RPC31],3.23 ± 0.087
19,GEANKHHWEDLQKRVIE [RPN5],3.4 ± 0.26
20,GEDSTKPLGPCDVFWVQ [POP1],2.97 ± 0.082
21,GEKIDSNKPIFLFAPEL [SWI1],2.54 ± 0.21
22,GEPEAGNKALEDEEEFS [RPC34],3.26 ± 0.26
23,GESEKSSDVDMDDEEWR [RPC53],3.63 ± 0.21
24,GEVMKELSEEKYIVKAS [RPT4],3.38 ± 0.072
25,GEYSVKLLKGATLYIPK [FAS2],2.87 ± 0.21

row,Sequence,protein stability index
1,GFGILEDGMIIDVNLNF [RRP40],3.21 ± 0.075
2,GFGLVYNSVAEAKKFEP [RPS24A],3.47 ± 0.13
3,GFINQKNLKPQEQLKNV [YIL149C/MLP2],2.84 ± 0.081
4,GFKWLNKLDEYHGLYTN [LIN1],1.79 ± 0.056
5,GFYQIKKIVDSKKLNLK [YMR129W/POM152],2.98 ± 0.092
6,GGFTAYGGADYGEATSP [RPO21],1.9 ± 0.069
7,GGGWDNVDQTKTQCPNY [RPC11],3.25 ± 0.17
8,GGGYFSAAGMTAAIDSV [FAS1],3.23 ± 0.11
9,GGKAGSAAKASQSRSAK [HTA1],3.14 ± 0.071
10,GGNSTQNTSNMNAGGLF [YGR119C/NUP57],3.15 ± 0.06
11,GGQHHHRINMDKYHPGY [RPL28],3.36 ± 0.056
12,GGSSDTADKIRIHAKNF [GAL11],1.86 ± 0.061
13,GGVPTTSFGQPQSAPNQ [YOR098C/NUP1],1.99 ± 0.085
14,GHRADVGGQFSKVQFDA [REC8],3.45 ± 0.11
15,GHSQFTSHYQNYHPNAS [RPN4],2.44 ± 0.044
16,GIDLAYNMYDAYGNWFN [PRP8],3.08 ± 0.04
17,GIDPTRIYTNSFIDIME [RPO21],2.5 ± 0.045
18,GIFGMDFYVVMNRPGAR [RPL11A],1.71 ± 0.064
19,GIGSLTDLMSIVQELLD [RPC34],2.91 ± 0.16
20,GIKLALDPNLITLALSS [SRB4],2.91 ± 0.065
21,GINSPLSSVALRSDFYI [YJL039C/NUP192],2.78 ± 0.12
22,GIPPPYDKKKRVVVPQA [RPL16B],2.2 ± 0.059
23,GIPTDKGPRFRKLTSQE [PRE8],3.52 ± 0.18
24,GIQEVVHNTNSFIISSL [NUT1],2.46 ± 0.059
25,GITYRREDMPFTAEGIV [RPB2],1.86 ± 0.099

row,Sequence,protein stability index
1,GIVLEKLGIESKQPNSA [RPS23A],2.11 ± 0.072
2,GKELDSLDLNNLELGGL [PGD1],3.25 ± 0.12
3,GKEVEVLMETKNTQSPQ [SNU114],3.6 ± 0.095
4,GKGDNDNGLGPLKYAPH [SWI3],3.39 ± 0.12
5,GKGLQSAIDVLDPLTKD [RPN2],2.56 ± 0.079
6,GKHSQEQNSSSAKPSQI [SIR4],3.24 ± 0.072
7,GKIDEAADILCELQVET [RPN5],3.25 ± 0.15
8,GKIQENIPFWKHVGFEL [SRP72],2.59 ± 0.055
9,GKLAKPRQLHNTHWGLV [RPB2],2.84 ± 0.071
10,GKMIELISGKAGVLNGT [RET1],2.98 ± 0.087
11,GKTNIALLTVLKALSHH [BRR2],1.54 ± 0.05
12,GKTSFFQALGVPTKIAR [RPP0],3.29 ± 0.091
13,GLFDSFTNGVLAVTNLL [YML031W/NDC1],2.95 ± 0.22
14,GLIMLNLQPASVINNYL [NUT1],1.5 ± 0.098
15,GLKFASFIFQYYGLVID [PRP8],1.27 ± 0.18
16,GLKRSQLDEFKNKYLKD [SWP82],2.89 ± 0.21
17,GLMKSYKIPKVMKDIYK [ESC2],3.38 ± 0.12
18,GLNSDAEEVRNFALTTL [ECM29],3.13 ± 0.29
19,GLNWLISLHENKLSGIL [ISW2],2.06 ± 0.062
20,GLSILFLTGQFASNKKI [YML103C/NUP188],2.37 ± 0.062
21,GLSMLAKLKELAEDVDD [RPC31],3.31 ± 0.061
22,GLSVTQKVFVRSRNGGA [DIS3],1.32 ± 0.065
23,GLVNPKTVQSMTQRAIQ [SWI3],2.25 ± 0.14
24,GMLAMASLHSKELTRIP [MED4],2.37 ± 0.12
